Laboratory results from article PMC9808371, “Extracellular Galectin 4 Drives Immune Evasion and Promotes T-cell Apoptosis in Pancreatic Cancer” (Cancer Immunology Research, 2022).

Experiments:
[1] = target: T1, human recombinant CD3ε/γ heterodimer (human, UniProt P07766 23-126; P09693 23-116); test: SPR
T1 chain 1: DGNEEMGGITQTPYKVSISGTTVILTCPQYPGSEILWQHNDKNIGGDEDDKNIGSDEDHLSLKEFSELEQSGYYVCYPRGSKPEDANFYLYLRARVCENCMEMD
T1 chain 2: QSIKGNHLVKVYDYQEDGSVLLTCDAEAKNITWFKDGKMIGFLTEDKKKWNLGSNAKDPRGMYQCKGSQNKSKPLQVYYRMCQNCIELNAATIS

[2] = target: T2, human recombinant CD3ε/δ heterodimer (human, UniProt P07766 23-126; P04234 22-105, N-linked glycosylations (sites not given)); test: SPR
T2 chain 1: T1 chain 1
T2 chain 2: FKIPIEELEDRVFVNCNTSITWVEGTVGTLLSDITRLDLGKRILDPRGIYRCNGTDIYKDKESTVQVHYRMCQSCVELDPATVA

[3] = target: T3, human recombinant CD3ε/δ heterodimer (human, UniProt P07766 23-126; P04234 22-105, N-linked glycosylations (sites not given)); test: SPR; CD3 heterodimers amine-coupled at pH 4 to CM5 chips (mouse CD3ε/δ 3,900 RU, human CD3ε/δ 9,800 RU, human CD3ε/γ 8,900 RU); gal 4 as analyte, 2-fold dilutions 16 to 0.5 μmol/L, 120 s association, 120 s dissociation; 25°C; 10 mmol/L phosphate pH 7.4, 140 mmol/L NaCl, 0.27 mmol/L KCl, 0.05% Tween 20; Biacore T-200; settings: both partners purified
T3 construct: CD3 epsilon chain, human; CD3 delta chain, human; it is probably made of the extracellular domains with vendor tags (surmise); The vendor's catalogue entry would give them; also called human CD3ε/δ; CD3δ/ε; source: bought: ACROBiosystems, CDD-H52wa-100 μg

B1: human recombinant galectin 4 (natural protein, UniProt P56470 1-323, looked up)
chain: MAYVPAPGYQPTYNPTLPYYQPIPGGLNVGMSVYIQGVASEHMKRFFVNFVVGQDPGSDVAFHFNPRFDGWDKVVFNTLQGGKWGSEERKRSMPFKKGAAFELVFIVLAEHYKVVVNGNPFYEYGHRLPLQMVTHLQVDGDLQLQSINFIGGQPLRPQGPPMMPPYPGPGHCHQQLNSLPTMEGPPTFNPPVPYFGRLQGGLTARRTIIIKGYVPPTGKSFAINFKVGSSGDIALHINPRMGNGTVVRNSLLNGSWGSEEKKITHNPFGPGQFFDLSIRCGLDRFKVYANGQHLFDFAHRLSAFQRVDTLEIQGDVTLSYVQI
notes: galectin 4 (LGALS4), Homo sapiens, cDNA NM_006149.4 recloned from pcDNA3.1-C-(k)DYK into pET-His1a (NcoI + Acc65I); The Hisx6-TEV tag was removed before use; also called gal 4; hgal 4; source: E. coli Rosetta (DE3), purified (NiNTA, tag removal with TEV protease, second NiNTA run); not shown: His6, N-terminal, cleaved
Kd [1]: ~10 µM
Kd [2]: ~1 µM
fold affinity against CD3γ/ε [3]: 10 fold
